According to PMC10465447, “Magnetically controlled graphene field-effect transistor biosensor for highly sensitive detection of cardiac troponin I”:

Target: cardiac troponin I (CTNI) (UniProt P19429 2-210)
Assay: pull-down with anti-CTNI antibody magnetic beads, supernatant fluorescence; 2 uM aptamer (10 uL), 10 uM CTNI (100 uL); fluorescence about 1400 to 1050 A.U.; PBS pH 7.4 washes; binding buffer not stated; room temperature 2 h (solution pull-down); 30 min bead reaction on sensor
Conditions: protein: commercial; label: 3'-6-FAM

Sequence of cardiac troponin I (CTNI) (P19429 2-210): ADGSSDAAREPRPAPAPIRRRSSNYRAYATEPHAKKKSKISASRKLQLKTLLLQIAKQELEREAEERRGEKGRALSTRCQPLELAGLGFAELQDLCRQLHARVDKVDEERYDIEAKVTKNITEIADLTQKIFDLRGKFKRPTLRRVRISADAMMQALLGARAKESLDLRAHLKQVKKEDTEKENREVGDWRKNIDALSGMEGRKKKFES

B1: CTNI aptamer (ssDNA)
DNA: CGTGCAGTACGCCAACCTTTCTCATGCGCTGCCCCTCTTA
modifications: 5'-NH2
  binding result: binds
